From the Human Domainome abundance scans (Beltran et al. 2025)

B1: Membrane-associated guanylate kinase, WW and PDZ domain-containing protein 3, residues 287 to 329; numbered along this chain, Q5TCQ9 (parent)
chain: MRDETLEPLPKNWEMAYTDTGMIYFIDHNTKTTTWLDPRLCKK

Variants of: B1
Experiment: abundance fitness (aPCA) (normalised: wild type 0, dead -1); higher = more abundant; growth selection in yeast, the domain comes from the species named
Details: Homo sapiens

Abundance fitness, by site and new letter:
I23: D -0.32; E 0.028; F -0.162; G -0.087; L -0.01; M -0.006; N -0.12; P -0.001; Q 0.042; S -0.068; T -0.006; V 0.03; W -0.277
Y24: A -0.723; C -0.652; D -0.524; E -0.53; F -0.146; G -0.774; H -0.574; I -0.678; K -0.668; L -0.61; Q -0.582; R -0.598; S -0.708; T -0.638; V -0.567; W -0.579
F25: C -0.774; D -0.516; E -0.565; G -0.57; H -0.421; I -0.557; K -0.68; L -0.82; M -0.721; P -0.679; Q -0.634; R -0.692; S -0.616; T -0.662; V -0.989; W -0.077
I26: C -0.352; D -0.659; E -0.543; G -0.657; K -0.196; L -0.097; P -0.868; Q -0.485; R -0.321; S -0.634; T -0.437; W -0.648; Y -0.479
D27: A -0.789; C -0.403; E -0.266; F -0.716; G -0.903; K -0.98; L -1.11; M -0.766; N -0.238; P -1.12; R -1.03; S -0.644; T -1.08; V -1.01; W -1.07; Y -0.119
H28: A -0.323; D -0.53; E -0.511; G -0.275; I -0.328; L -0.379; M -0.386; P -0.364; Q -0.306; R -0.164; S -0.28; T -0.214; V -0.273
N29: A -0.074; C -0.132; D -0.141; E -0.03; F -0.152; G -0.069; H -0.248; I -0.194; K -0.105; M -0.142; P -0.525; Q -0.089; R -0.078; S -0.103; T -0.051; V -0.094
T30: A -0.116; C -0.271; D -0.281; E -0.265; G -0.314; I -0.423; K -0.155; L -0.207; M -0.21; P -0.887; Q -0.139; S -0.051; W -0.572
K31: C -0.09; D -0.205; E -0.035; G -0.09; H 0.018; I -0.674; L -0.182; M -0.071; N -0.159; P -0.812; Q -0.004; R -0.017; T -0.214; V -0.385; W -0.278; Y -0.369
T32: A -0.207; C -0.101; D -0.47; E -0.328; G -0.357; H -0.438; I -0.11; K -0.303; L -0.152; M -0.071; N -0.215; P -0.879; Q -0.137; R -0.206; V -0.082; W -0.52; Y -0.417
T33: C -0.142; D -0.648; E -0.442; F -0.584; G -0.551; H -0.535; I -0.519; K -0.388; L -0.496; M -0.315; N -0.418; P -0.684; Q -0.417; R -0.351; S -0.187; V -0.298; W -0.445; Y -0.447
